# Results as given in the nanobody polyreactivity screen of Harvey et al. (2022).
# Experiment: yeast display, Sf9 membrane polyspecificity reagent, FACS + sequencing; frameworks hold sequencing errors
# Procedure, shortened: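 Synthetic nanobody libraries on Saccharomyces cerevisiae BJ5465 were galactose-induced for 36–48 hours, stained 1 hour at 4 °C with 10% biotinylated, detergent-solubilized Sf9 membrane reagent and enriched on streptavidin microbeads. FACS then separated cells into low and high (top ~1%) gates by anti-HA (expression) and streptavidin (reagent binding) fluorescence. Genes were colony-PCR amplified, MiSeq 2 × 250 sequenced and CDR-length filtered. A clone's polyreactivity label is that of its gate of origin.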
row,Sequence,polyreactivity (PSR sort gate)
1,QVQLVESGGGLVQAGGSLRLSCAASGGIFVSYAMGWYRQAPGNERELVAAITSGGGTSYADSVKGRFTISRDNAKNTVYLQMNSLKPEDTAVYYCNADGYLAERFVIRLDEYRDYDYWGQGTQVTVSS,low polyreactivity
2,QVQLVESGGGLVQAGGSLRLSCAASGGIFVTYAMGWCRQAPGKERELVAAITSGDSTYYADSVKGRFTISRDNAKNPVYLQMNSLKPEDTAVYYCAVGSTDRVSAQGSYFTYDYWGQGTQVTVSS,low polyreactivity
3,QVQLVESGGGLVQAGGSLRLSCAASGGIFWFNAMGRYRQAPGKEREFVAAITWRGGSTYYADSVKGRFTISRDNAKNTVYLQMHSLKPEDTAVYYCAATYWWHRSSGWDRVEYWGQGTQVNVSS,high polyreactivity
4,QVQLVESGGGLVQAGGSLRLSCAASGGIFWTYAMGWYRQAPWKERELVATITSGGSTNYADSVKGRFTISRDNAKNTVYLQMNSLKPEDTAVYYCNADWWWGYGYWGQGTQVTVSS,low polyreactivity
5,QVQLVESGGGLVQAGGSLRLSCAASGGIFYDYAMGWYRQAPGKERELVAAISQSGGSTYYADSVKGRFTISRDNAKNTVYLQMNSLKPEDTAVYYCAADYLDSTYGYVYGWDDSWGQGTQVTVSS,low polyreactivity
6,QVQLVESGGGLVQAGGSLRLSCAASGGIFYGNVMGWYRHAPGKERELVADITSVGSTYYADSVKGRFTISRDNAKNTVYLQMNSLKPEDTAVYYCAAETYLVFSTWYGYDYCGQGTQVTVSS,low polyreactivity
7,QVQLVESGGGLVQAGGSLRLSCAASGGIFYGYALGWYRQAPGKERELVASITSDGSTYADSVKGRFTISRDNAKNTVYLQMNSLKPEDTAVYYCNKEILVIVTYDYWGQGTQVTVSS,low polyreactivity
8,QVQLVESGGGLVQAGGSLRLSCAASGGIFYGYAMGWYRQAPGKERELVAAISDSGGSTYYADSVKGRFTISRDNAKNTVYLQMNSLKPEDTAVYYCATDAPVGGYVSEGDYWGQGTQVTVSS,low polyreactivity
9,QVQLVESGGGLVQAGGSLRLSCAASGGIFYGYAMGWYRQAPGKERELVAAITTGGSTNYADSVKGRFTISRDNAKNTVYLQMNSLKPEDTAVYYCAAPVNRAQGPYARRVERYGYWGQGTQVTVSS,low polyreactivity
10,QVQLVESGGGLVQAGGSLRLSCAASGGIFYPYAMGWYRQAPGKERELVASIDVSDGSTYYADSVKGRFTISRDNAKNSVYLQMNSLKPEDTAVYYCAADRYSKAIDFEGDYWGQGTQVTVSS,low polyreactivity
11,QVQLVESGGGLVQAGGSLRLSCAASGGIISINAMGWYRQAPGKERELVAAISWGDGITYYADSVKGRFTTSRDNAKNTVYLLMTSLKPEDTAVYYCAKDIGTRLGPAGYDYWGQGTQVTVSS,low polyreactivity
12,QVQLVESGGGLVQAGGSLRLSCAASGGIISSYVMGWYRQAPGKERELVAAISRSGGSTYYADSVKGRFTISRDNAKNTVYLQMNSLKPEDTAVYFCAAVLQTRYNYWGQGTQVTVSS,high polyreactivity
13,QVQLVESGGGLVQAGGSLRLSCAASGGILNPNAMGWYRQAPGKERELVAAISNGGGTKYADSVKWRFTISRDNAKNTVYLQMNSLKPEDTAVYYCAARQWWSYDYWGKGTQVTVSS,high polyreactivity
14,QVQLVESGGGLVQAGGSLRLSCAASGGILPKYAMGWYRQAPGKERELVAAIDGGADSTYYADSVKGRFTISRDIAKNTVYLQLNSLKPEDTAVYFCGADGSLHAGHWRTYGYYYWGQGTQVTVSS,low polyreactivity
15,QVQLVESGGGLVQAGGSLRLSCAASGGILRQNTMGWYRQAPGKERELVAAISSSGGRTYYADSVKGRFTISRDNAKNTVYLQMNSLKPEDTAVYYCAAEVRLKYRGWTGDYWGQGTQVTVSS,high polyreactivity
16,QVQLVESGGGLVQAGGSLRLSCAASGGIPLYYVMGWYRQAPGKERELVADISGDDSTNYADSVKGRFTISRDNAKNTVYLQMNSLKPEDTAVYYCAADGWLWSFTGDGWWFDYWGQGTQVTVSS,low polyreactivity
17,QVQLVESGGGLVQAGGSLRLSCAASGGISYRYAMGWYRQAPGKERELVAAISGRGTSTYYADSVKGRFTISRDNAKNTVYLQMNSLKTEDTAVYYCNAQVGNFGYRSGGYDYWGQGTQVTVSS,high polyreactivity
18,QVQLVESGGGLVQAGGSLRLSCAASGGLFTAYTMGWYRQAPGKERELVAVISSGGGRTYYADSVKGRFTISRDNAKNSVYLQMNSRKPEDTAVYYCNARVYVSANKYDYWGQGTQVTVSS,high polyreactivity
19,QVQLVESGGGLVQAGGSLRLSCAASGGNFAEYVMGWYRQAPGKERELVAAIDWSGGSTYYADSVKGRFTISRDNAKNTVYLQMNSLKPEDTAVYYCNADGPLDRYEYWGQGTQVTVSS,low polyreactivity
20,QVQLVESGGGLVQAGGSLRLSCAASGGNFWIYTMGWYTQAPGKERELVASITRGGSTYADSVKGRFTISRDKAKNTVYLQMNSLKPEDTAVYYCNAEFRYPWFRWEYDHWGQGTQVTVSS,low polyreactivity
21,QVQLVESGGGLVQAGGSLRLSCAASGGNFYLYAMGWYIQAPGKEREFVAAISSSGGSTNYADSVKGRFTFSRDNAKNTVYLQMNSLKAEDTAVYYCAARWLAFLDLGKTYEYWGQGTHVTVSS,high polyreactivity
22,QVQLVESGGGLVQAGGSLRLSCAASGGSSPNYAMGWYRQAPGKEREFVAGISRSGGSTYYADSVKGRFTISRDNAKNTVYLQMNSLKPEDTAVYVCAAARSRPYDYWGQGTQVTVSS,high polyreactivity

row,Sequence,polyreactivity (PSR sort gate)
1,QVQLVESGGGLVQAGGSLRLSCAASGGTFAFYAMGWYRQAPGKERELVAAITSGGRTYYADSVKGRFTISRDNAKNTVYLQMKRLKPEDTAVYYCNADWVDHYYVGYDYWGQGTQVTVSS,low polyreactivity
2,QVQLVESGGGLVQAGGSLRLSCAASGGTFAGYAMGWYRQAPGKERELVAAISRSGGSTYYADSVKGRFTISRDNAKNTVYLQMNSLKPEDTAVYYCIAASRTKFDYWGQGTQVTVSS,high polyreactivity
3,QVQLVESGGGLVQAGGSLRLSCAASGGTFDSYAMGWYRQAHGKERELVAAITRRTSSTYYADSVKGRFTISRDNAKNTVYLQMHSLKPEDTAVYYCNADSYYYDHRDFGYWGQGTLVTVSS,high polyreactivity
4,QVQLVESGGGLVQAGGSLRLSCAASGGTFDYYAMGWYRQAPGKERELVAAISTSGGRTYYADSVKGRFTISRDNAKNTVYLQMNSLTPEDTAVYYCAALSRRAKYDSFYYWGQGTQVTVSS,high polyreactivity
5,QVQLVESGGGLVQAGGSLRLSCAASGGTFERNAMGWYIQAPGKERELVAGMSKISGRTYYADSVKGRFTISRDNAKNTVYLQMNCLKPEDTAVYYCNKVSRSSYGYWGQGTQVTVSS,high polyreactivity
6,QVQLVESGGGLVQAGGSLRLSCAASGGTFFQYAMGWYRQAPGKERELVAAITWSSGSTYYADSVKGRFTISRDNAKNTVYLQMNSLKPEDTAVYYDDYYTYGDYWGQGTQVTVSS,low polyreactivity
7,QVQLVESGGGLVQAGGSLRLSCAASGGTFFTNAMGWYRQAPGKERELVAAISRGGSSTYYADSVKGRFTISRDNAKNTVYLQMTSLKPEDTAVYYCNKAYHRRDSEFGYWGQGTQVTVSS,high polyreactivity
8,QVQLVESGGGLVQAGGSLRLSCAASGGTFGGNAMGWYRQAPGKERELVAAITDIGGSTYYADSVKGRFTISRDNAKNTVYLQMNSLKPEDTAVYYCAKDNVEVVGQWSSDEYDYWGQGTQVTVSS,low polyreactivity
9,QVQLVESGGGLVQAGGSLRLSCAASGGTFGKNAMGWYRQAPGKERELVAAITWSGARTFYADSVKGRFTISRDNAKNTVYLQMNSLKPEDTAVYYCAKGGTRFTRYEYWGQGTQVTVSS,high polyreactivity
10,QVQLVESGGGLVQAGGSLRLSCAASGGTFGKNAMGWYRQAPGKERELVAAITWSGARTFYADSVKGRFTISRDNAKNTVYLQMNSLKPEDTAVYYCGKGGTRFTRYEYWGQGTQVTVSS,high polyreactivity
11,QVQLVESGGGLVQAGGSLRLSCAASGGTFGRYAMGWYRQAPGKERELVAAITYGGGSTYYADSVKGRFTISRDNAKNTVYLQMNSLKPEDTAVYYCNKYASLRYWGQGTQVTVSS,high polyreactivity
12,QVQLVESGGGLVQAGGSLRLSCAASGGTFGSYTMGWYRQAPGKERELVAAISSGGGTDYADSVKGRFTISRDNAKNTVYLQMNSLIPEDTAVYYCYAKSYYAWGSVRYPQTFDYWGQGTQVTVSS,low polyreactivity
13,QVQLVESGGGLVQAGGSLRLSCAASGGTFGYNAMGWYRQAPGKERELVAAIRNCGSTYYADSVKGRFTISRDNAKNTVYLQMNSLKQEDTAVYYCAAKVYRKLNYWVQGTQVTVSS,high polyreactivity
14,QVQLVESGGGLVQAGGSLRLSCAASGGTFHSNAMGWYRQAPGKERELVAAISWSDDTTYYADSVKGRFTISRDNAKNTVYLQINSLKPDDTAVYYCATVFFVLPPSRFDSWGQGTQVTVSS,low polyreactivity
15,QVQLVESGGGLVQAGGSLRLSCAASGGTFKHYAMGWYRQAAGKERELVAAITRTGGSTYYADSVKGRYTISRDNAKNTVYLQMNSLKPEDTAVYYCAAQRPRGAYRHYDYWGQGTQVTVSS,high polyreactivity
16,QVQLVESGGGLVQAGGSLRLSCAASGGTFNANGMGWYRQAPGKERELVAAISQRAGRTYYADSVKGRFTISRDNAKNTVYLQMNSLKPEDTAVFYCAKRPTDRRFGSGYWGQGTQVTVSS,high polyreactivity
17,QVQLVESGGGLVQAGGSLRLSCAASGGTFNGNTMGWYRQAPGKERELVAVIDWSGGSTYYADSVKGRFTISRDNAKNTVYLQMNSLKPEDTAVYYCNADSDAQFREPKGLYYWGQGTQVTVSS,low polyreactivity
18,QVQLVESGGGLVQAGGSLRLSCAASGGTFPPNTMGWSRQAPGKEREFVAASTWRGSSTYYADSVKGRFTISRDKAKNTVYLQMNSLKPEDTAVYYCAARRAYERMGYWGQGTQVTVSS,high polyreactivity
19,QVQLVESGGGLVQAGGSLRLSCAASGGTFPQFAMGWYRQAPGKEREFVADITSRGGTTYYADSVKGRFTISRDNAKNTVYLQMNSLKPEDTAVYYCAADNPADWWGLDYWGQGTQVTVSS,low polyreactivity
20,QVQLVESGGGLVQAGGSLRLSCAASGGTFPQYAMGWYRQAPGKEREFVADITSRGGTTYYADSVKGRFTISRDNAKNTVYLQMNSLKPEDTAVYYCAAVNVAYSWYDTGYDYWGQGTQVTVSS,low polyreactivity
21,QVQLVESGGGLVQAGGSLRLSCAASGGTFPRNAMGWYRQAPGKERELVAAINQSGGRTYYADSVKGRFTISRDNAKNTVYLQLNSLKPEDTAVYYCAARVTYYRTYRGRQYGYWGQGTQVTVSS,high polyreactivity
